According to patent publication US20150344570A1 (published 2015):

B1: GpH7-A5/GpH7-B3 variant A327_16H/GpL16-k0 (antibody, human IgG1, kappa)
heavy 1: not shown
heavy 2: not shown
light: DIVMTQSPLSLPVTPGEPASISCQASESLVHSNRNTYLHWYLQKPGQSPQLLIYKVSNRFSGVPDRFSGSGSGTDFTLKISRVEAEDVGVYYCSQNTHVPPTFGQGTKVEIERTVAAPSVFIFPPSDEQLKSGTASVVCLLNNFYPREAKVQWKVDNALQSGNSQESVTEQDSKDSTYSLSSTLTLSKADYEKHKVYACEVTHQGLSSPVTKSFNRGEC
notes: Heterodimerized IgG1 antibody; alteration in the GpH7-B3 chain only; also called He Ab
B2: GpH7-A5/GpH7-B3 variant Y300_10E/GpL16-k0 (antibody, human IgG1, kappa)
heavy 1: not shown
heavy 2: not shown
light: DIVMTQSPLSLPVTPGEPASISCQASESLVHSNRNTYLHWYLQKPGQSPQLLIYKVSNRFSGVPDRFSGSGSGTDFTLKISRVEAEDVGVYYCSQNTHVPPTFGQGTKVEIERTVAAPSVFIFPPSDEQLKSGTASVVCLLNNFYPREAKVQWKVDNALQSGNSQESVTEQDSKDSTYSLSSTLTLSKADYEKHKVYACEVTHQGLSSPVTKSFNRGEC
notes: Heterodimerized anti-glypican-3 IgG1; mutation in the GpH7-B3 chain only; also called He Ab
B3: GpH7-A5/GpH7-B3 variant V266_08L/GpL16-k0 (antibody, human IgG1, kappa)
heavy 1: not shown
heavy 2: not shown
light: DIVMTQSPLSLPVTPGEPASISCQASESLVHSNRNTYLHWYLQKPGQSPQLLIYKVSNRFSGVPDRFSGSGSGTDFTLKISRVEAEDVGVYYCSQNTHVPPTFGQGTKVEIERTVAAPSVFIFPPSDEQLKSGTASVVCLLNNFYPREAKVQWKVDNALQSGNSQESVTEQDSKDSTYSLSSTLTLSKADYEKHKVYACEVTHQGLSSPVTKSFNRGEC
notes: as for B2
B4: GpH7-A5/GpH7-B3 variant A327_09D/GpL16-k0 (antibody, human IgG1, kappa)
heavy 1: not shown
heavy 2: not shown
light: DIVMTQSPLSLPVTPGEPASISCQASESLVHSNRNTYLHWYLQKPGQSPQLLIYKVSNRFSGVPDRFSGSGSGTDFTLKISRVEAEDVGVYYCSQNTHVPPTFGQGTKVEIERTVAAPSVFIFPPSDEQLKSGTASVVCLLNNFYPREAKVQWKVDNALQSGNSQESVTEQDSKDSTYSLSSTLTLSKADYEKHKVYACEVTHQGLSSPVTKSFNRGEC
notes: as for B1
B5: GpH7-A5/GpH7-B3 variant A327_10E/GpL16-k0 (antibody, human IgG1, kappa)
heavy 1: not shown
heavy 2: not shown
light: DIVMTQSPLSLPVTPGEPASISCQASESLVHSNRNTYLHWYLQKPGQSPQLLIYKVSNRFSGVPDRFSGSGSGTDFTLKISRVEAEDVGVYYCSQNTHVPPTFGQGTKVEIERTVAAPSVFIFPPSDEQLKSGTASVVCLLNNFYPREAKVQWKVDNALQSGNSQESVTEQDSKDSTYSLSSTLTLSKADYEKHKVYACEVTHQGLSSPVTKSFNRGEC
notes: as for B1
B6: GpH7-A5/GpH7-B3 variant A327_14T/GpL16-k0 (antibody, human IgG1, kappa)
heavy 1: not shown
heavy 2: not shown
light: DIVMTQSPLSLPVTPGEPASISCQASESLVHSNRNTYLHWYLQKPGQSPQLLIYKVSNRFSGVPDRFSGSGSGTDFTLKISRVEAEDVGVYYCSQNTHVPPTFGQGTKVEIERTVAAPSVFIFPPSDEQLKSGTASVVCLLNNFYPREAKVQWKVDNALQSGNSQESVTEQDSKDSTYSLSSTLTLSKADYEKHKVYACEVTHQGLSSPVTKSFNRGEC
notes: as for B1
B7: GpH7-A5/GpH7-B3 variant A327_08L/GpL16-k0 (antibody, human IgG1, kappa)
heavy 1: not shown
heavy 2: not shown
light: DIVMTQSPLSLPVTPGEPASISCQASESLVHSNRNTYLHWYLQKPGQSPQLLIYKVSNRFSGVPDRFSGSGSGTDFTLKISRVEAEDVGVYYCSQNTHVPPTFGQGTKVEIERTVAAPSVFIFPPSDEQLKSGTASVVCLLNNFYPREAKVQWKVDNALQSGNSQESVTEQDSKDSTYSLSSTLTLSKADYEKHKVYACEVTHQGLSSPVTKSFNRGEC
notes: as for B1
B8: GpH7-A5/GpH7-B3 variant V266_11K/GpL16-k0 (antibody, human IgG1, kappa)
heavy 1: not shown
heavy 2: not shown
light: DIVMTQSPLSLPVTPGEPASISCQASESLVHSNRNTYLHWYLQKPGQSPQLLIYKVSNRFSGVPDRFSGSGSGTDFTLKISRVEAEDVGVYYCSQNTHVPPTFGQGTKVEIERTVAAPSVFIFPPSDEQLKSGTASVVCLLNNFYPREAKVQWKVDNALQSGNSQESVTEQDSKDSTYSLSSTLTLSKADYEKHKVYACEVTHQGLSSPVTKSFNRGEC
notes: as for B2

What was measured:
[1] = molecular target: T1, FcγRIIIa extracellular domain with C-terminal His tag (human, UniProt P08637 17-208); test: SPR (Biacore); He/Con_3a divided by He/Con_2b (FcγRIIb)
T1 construct: extracellular domain; also called FcgRIIIa; 3a; not shown: His tag at the C terminus
T1 sequence (P08637 17-208): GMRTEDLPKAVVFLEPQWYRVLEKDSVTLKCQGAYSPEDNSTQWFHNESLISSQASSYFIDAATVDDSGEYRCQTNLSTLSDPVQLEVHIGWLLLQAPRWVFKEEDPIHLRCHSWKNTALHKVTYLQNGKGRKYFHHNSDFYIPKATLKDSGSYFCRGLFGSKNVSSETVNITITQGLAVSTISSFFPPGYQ

[2] = molecular target: T2, FcγRIIb extracellular domain with C-terminal His tag (human, UniProt P31994 43-217); test: SPR (Biacore), FcγR as analyte over captured antibody; GpH7-A5/GpH7-B3/GpL16-k0 = 100
T2 construct: extracellular domain; also called FcgRIIb; 2b; not shown: His tag at the C terminus
T2 sequence (looked up): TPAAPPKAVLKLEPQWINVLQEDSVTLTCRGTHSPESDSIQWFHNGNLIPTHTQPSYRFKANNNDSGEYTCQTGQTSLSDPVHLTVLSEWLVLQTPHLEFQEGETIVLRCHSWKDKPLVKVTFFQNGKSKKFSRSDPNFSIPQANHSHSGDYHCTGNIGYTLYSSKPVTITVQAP
Experimental: (§1) The heterodimerized antibodies He Abs in which one of the H chains was introduced with an alteration were assayed for their binding activities to each activating FcγR and inhibitory FcγR according to the method described in Example 4. […] The activating FcγRs in FIGS. 26, 27, 28, and 29 are FcγRIa, FcγRIIa (R), FcγRIIa (H), and FcγRIIIa, respectively.
(§2) Analysis of interaction between objective antibody and the FcγR was carried out using Biacore T100 (GE Healthcare). HBS-EP+ (GE Healthcare) was used as the running buffer, and the measurement temperature was set to 25° C. Chips produced by immobilizing the antigen peptide by the amine coupling method to a Series S Sencor Chip CM5 (GE Healthcare), or alternatively, chips produced by allowing preliminarily biotinylated antigen peptides to interact with and immobilize onto a Series S Sensor Chip SA (certified) (GE Healthcare) were used. Antibodies of interest were captured onto an antigen peptide-immobilized chip, and allowed to interact to each FcγR diluted with running buffer. To regenerate and repeatedly use the chip, the antibodies captured on the chip were washed off by reacting 10 mM glycine-HCl, pH 1.5.

[3] = molecular target: T1, FcγRIIIa extracellular domain with …; test: as above
Experimental: as §1, §2

FcγRIIa R [4] = molecular target: T3, FcγRIIa R (human, UniProt P12318 34-217); test: SPR, relative to GpH7-A5/GpH7-B3/GpL16-k0
T3 construct: extracellular domain; also called FcgRIIa R type; 2aR; not shown: His tag at the C terminus
T3 sequence (looked up): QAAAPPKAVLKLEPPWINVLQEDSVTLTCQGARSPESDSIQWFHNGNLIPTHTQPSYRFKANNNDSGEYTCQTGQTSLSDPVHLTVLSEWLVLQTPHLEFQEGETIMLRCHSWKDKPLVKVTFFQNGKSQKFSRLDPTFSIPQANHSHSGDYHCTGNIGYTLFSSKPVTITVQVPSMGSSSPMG

FcγRIIb = molecular target: T4, FcγRIIb (human, UniProt P31994 43-217); test: SPR, relative to GpH7-A5/GpH7-B3/GpL16-k0
T4 construct: extracellular domain; also called FcgRIIb; 2b; not shown: His tag at the C terminus
T4 sequence (looked up): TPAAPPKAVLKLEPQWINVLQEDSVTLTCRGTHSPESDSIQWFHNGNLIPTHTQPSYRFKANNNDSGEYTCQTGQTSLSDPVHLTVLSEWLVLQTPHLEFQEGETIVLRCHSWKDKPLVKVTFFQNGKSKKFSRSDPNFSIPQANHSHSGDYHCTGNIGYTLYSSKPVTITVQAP

FcγRIIa R [5] = molecular target: T3, FcγRIIa R; test: SPR; He/Con_2aR divided by He/Con_2b (FcγRIIa R over FcγRIIb)

Binder	He_3a/2b (IIIa/IIb) [1]	He/Con_2b [2]	He/Con_3a [3]	He/Con_2aR (FcγRIIa R [4])	He/Con_2b (FcγRIIb)	He_2aR/2b (FcγRIIa R [5])
B1	0.69 ratio	63.5 % of control	43.7 % of control			
B2				107 control = 100	134 control = 100	0.8 ratio
B3				142 control = 100	236 control = 100	0.6 ratio
B4	0.49 ratio	172 % of control	83.7 % of control			
B5	0.49 ratio	140 % of control	68.6 % of control			
B6	0.46 ratio	89.4 % of control	41.4 % of control			
B7	0.67 ratio	63.1 % of control	42 % of control			
B8				-5.6 control = 100	1 control = 100	-5.55 ratio
